Reference: patent US20230220021A1, “CYCLIC PEPTIDE INHIBITORS OF PSD-95 AND USES THEREOF” (University of Copenhagen, priority 2020, published 2023)
[ ]: non-standard residue; d: D form.

Molecular target: (7× His)-PSD-95-PDZ2 wild type (UniProt P78352)
Test: FP competition

Chain of (7× His)-PSD-95-PDZ2 wild type (P78352 160-246): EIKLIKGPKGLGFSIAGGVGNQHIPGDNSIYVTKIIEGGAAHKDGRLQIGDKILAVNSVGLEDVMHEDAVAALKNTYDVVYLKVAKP

Ki: 3.76 µM | Relative Ki (Ki mut/Ki WT): 2.51
Binder: cyclo(THLETTFTGDGMPKTIRVTQ[dP]GQ) (ring closure inferred; not fully specified) [cyclic nNOS β-hairpin peptide T116M]
